Source: patent publication CN101605906A (MEDAREX INC, dated 2009)

Biological target: T1, 人类CD70 (表达于细胞表面) (human, UniProt P32970 1-193)
T1 sequence: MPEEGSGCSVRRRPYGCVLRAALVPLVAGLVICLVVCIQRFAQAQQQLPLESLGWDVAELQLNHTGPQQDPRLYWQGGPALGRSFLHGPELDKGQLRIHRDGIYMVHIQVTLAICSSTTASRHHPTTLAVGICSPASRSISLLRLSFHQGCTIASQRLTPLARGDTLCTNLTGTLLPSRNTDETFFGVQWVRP
Assay: cell-based or functional assay

B1: 抗-CD70人类单克隆抗体2H5 (antibody, V domains shown)
VH: QVQLVESGGGVVQPGRSLRLSCAASGFTFSSYIMHWVRQAPGKGLEWVAVISYDGRNKYYADSVKGRFTISRDNSKNTLYLQMNSLRAEDTAVYYCARDTDGYDFDYWGQGTLVTVSS
VL: EIVLTQSPATLSLSPGERATLSCRASQSVSSYLAWYQQKPGQAPRLLIYDASNRATGIPARFSGSGSGTDFTLTISSLEPEDFAVYYCQQRTNWPLTFGGGTKVEIK
- 3 H-胸腺嘧啶核苷掺入 (Hum-Zap内化测定, 786-O细胞), EC50: 0.9 nM
